Legend:
Conditions in all cases: both partners purified
Amyloid β 1-42 monomer [1] = molecular target: T1, Amyloid β 1-42 monomer (UniProt P05067 672-713); experiment: far-Western, overlay or dot blot; Aβ42 20 μM incubated with bFg or hFg (0.03, 0.3, 3 μM) for 1 h at 37 °C in 50 mM phosphate/200 mM NaCl pH 7.4, then dotted; loss of the spot intensity of antibody 4G8 (monomer) or A11 (oligomer) taken as binding by steric hindrance; apparent Kd from fit or simulation with eq S6
T1 construct: printed molecular weight 4512 g/mol; numbers count on: the Aβ peptide; read out with antibody 4G8 in the dot blot; also called Aβ42; Aβ42 monomer; source: bought: Peptide Institute, Inc. (Japan), used without further purification

Amyloid β 1-42 oligomer [2] = molecular target: T2, Amyloid β 1-42 oligomer (UniProt P05067 672-713); experiment: as above
T2 construct: numbers count on: the Aβ peptide; granular particles of 5.0 ± 0.9 nm height in AFM; read out with antibody A11 in the dot blot; also called Aβ42 oligomer; Aβ oligomers; source: formed from bought Aβ42 (Peptide Institute, Inc.) at 20 μM during 1 h at 37 °C in 50 mM phosphate/200 mM NaCl (pH 7.4); copies: 12

Amyloid β 1-42 monomer [3] = molecular target: T1, Amyloid β 1-42 monomer; experiment: far-Western, overlay or dot blot + AUC; number of binding sites on bFg worked out from the concentrations of Aβ42 species (18 μM monomer, about 0.17 μM oligomer) and of bFg at which the interaction was seen
Amyloid β 1-42 oligomer [4] = molecular target: T2, Amyloid β 1-42 oligomer; experiment: as above

B1: human fibrinogen (complex)
chain 1: ADSGEGDFLAEGGGVRGPRVVERHQSACKDSDWPFCSDEDWNYKCPSGCRMKGLIDEVNQDFTNRINKLKNSLFEYQKNNKDSHSLTTNIMEILRGDFSSANNRDNTYNRVSEDLRSRIEVLKRKVIEKVQHIQLLQKNVRAQLVDMKRLEVDIDIKIRSCRGSCSRALAREVDLKDYEDQQKQLEQVIAKDLLPSRDRQHLPLIKMKPVPDLVPGNFKSQLQKVPPEWKALTDMPQMRMELERPGGNEITRGGSTSYGTGSETESPRNPSSAGSWNSGSSGPGSTGNRNPGSSGTGGTATWKPGSSGPGSTGSWNSGSSGTGSTGNQNPGSPRPGSTGTWNPGSSERGSAGHWTSESSVSGSTGQWHSESGSFRPDSPGSGNARPNNPDWGTFEEVSGNVSPGTRREYHTEKLVTSKGDKELRTGKEKVTSGSTTTTRRSCSKTVTKTVIGPDGHKEVTKEVVTSEDGSDCPEAMDLGTLSGIGTLDGFRHRHPDEAAFFDTASTGKTFPGFFSPMLGEFVSETESRGSESGIFTNTKESSSHHPGIAEFPSRGKSSSYSKQFTSSTSYNRGDSTFESKSYKMADEAGSEADHEGTHSTKRGHAKSRPV
chain 2: QGVNDNEEGFFSARGHRPLDKKREEAPSLRPAPPPISGGGYRARPAKAAATQKKVERKAPDAGGCLHADPDLGVLCPTGCQLQEALLQQERPIRNSVDELNNNVEAVSQTSSSSFQYMYLLKDLWQKRQKQVKDNENVVNEYSSELEKHQLYIDETVNSNIPTNLRVLRSILENLRSKIQKLESDVSAQMEYCRTPCTVSCNIPVVSGKECEEIIRKGGETSEMYLIQPDSSVKPYRVYCDMNTENGGWTVIQNRQDGSVDFGRKWDPYKQGFGNVATNTDGKNYCGLPGEYWLGNDKISQLTRMGPTELLIEMEDWKGDKVKAHYGGFTVQNEANKYQISVNKYRGTAGNALMDGASQLMGENRTMTIHNGMFFSTYDRDNDGWLTSDPRKQCSKEDGGGWWYNRCHAANPNGRYYWGGQYTWDMAKHGTDDGVVWMNWKGSWYSMRKMSMKIRPFFPQQ
chain 3: YVATRDNCCILDERFGSYCPTTCGIADFLSTYQTKVDKDLQSLEDILHQVENKTSEVKQLIKAIQLTYNPDESSKPNMIDAATLKSRKMLEEIMKYEASILTHDSSIRYLQEIYNSNNQKIVNLKEKVAQLEAQCQEPCKDTVQIHDITGKDCQDIANKGAKQSGLYFIKPLKANQQFLVYCEIDGSGNGWTVFQKRLDGSVDFKKNWIQYKEGFGHLSPTGTTEFWLGNEKIHLISTQSAIPYALRVELEDWNGRTSTADYAMFKVGPEADKYRLTYAYFAGGDAGDAFDGFDFGDDPSDKFFTSHNGMQFSTWDNDNDKFEGNCAEQDGSGWWMNKCHAGHLNGVYYQGGTYSKASTPNGYDNGIIWATWKTRWYSMKKTTMKIIPFNRLTIGEGQQHHLGGAKQAGDV
modifications: Natural plasma hexamer (AαBβγ)2, about 340 kDa, disulfide-linked and N-glycosylated, fibrinopeptides A and B retained. Aα is the 610-residue plasma form (the paper gives αC as 221-610); mature 1-610 =
With B1 the Kd (Amyloid β 1-42 monomer [1]) was at least 100000 nM and the Kd (Amyloid β 1-42 oligomer [2]) was 1400 ± 200 nM.

B2: bovine fibrinogen (complex)
chain 1: EDGSDPPSGDFLTEGGGVRGPRLVERQQSACKETGWPFCSDEDWNTKCPSGCRMKGLIDEVDQDFTSRINKLRDSLFNYQKNSKDSNTLTKNIVELMRGDFAKANNNDNTFKQISEDLRSRIEILRRKVIEQVQRIKVLQKNVRDQLVDMKRLEVDIDIKIRSCKGSCSRALEHKVDLEDYKNQQKQLEQVIAINLLPSRDIQYLPLIKMSTITGPVPREFKSQLQEAPLEWKALLEMQQTKMVLETFGGDGHARGDSVSQGTGLAPGSPRKPGTSSIGNVNPGSYGPGSSGTWNPGRPEPGSAGTWNPGRPEPGSAGTWNPGRPEPGSAGTWNPGRPEPGSAGTWNPGRPEPGSAGTWNTGSSGSSSFRPDSSGHGNIRPSSPDWGTFREEGSVSSGTKQEFHTGKLVTTKGDKELLIDNEKVTSGHTTTTRRSCSKVITKTVTNADGRTETTKEVVKSEDGSDCGDADFDWHHTFPSRGNLDDFFHRDKDDFFTRSSHEFDGRTGLAPEFAALGESGSSSSKTSTHSKQFVSSSTTVNRGGSAIESKHFKMEDEAESLEDLGFKGAHGTQKGHTKARPARGIHTSPLGEPSLTP
chain 2: QFPTDYDEGQDDRPKVGLGARGHRPYDKKKEEAPSLRPVPPPISGGGYRARPATATVGQKKVERKPPDADGCLHADPDLGVLCPTGCKLQDTLVRQERPIRKSIEDLRNTVDSVSRTSSSTFQYITLLKNMWKGRQNQVQDNENVVNEYSSHLEKHQLYIDETVKNNIPTKLRVLRSILENLRSKIQKLESDVSTQMEYCRTPCTVTCNIPVVSGKECEKIIRNEGETSEMYLIQPEDSSKPYRVYCDMKTEKGGWTVIQNRQDGSVDFGRKWDPYKQGFGNIATNAEGKKYCGVPGEYWLGNDRISQLTNMGPTKLLIEMEDWKGDKVTALYEGFTVQNEANKYQLSVSKYKGTAGNALIEGASQLVGENRTMTIHNSMFFSTYDRDNDGWKTTDPRKQCSKEDGGGWWYNRCHAANPNGRYYWGGAYTWDMAKHGTDDGVVWMNWQGSWYSMKKMSMKIRPYFPEQ
chain 3: YVATRDNCCILDERFGSYCPTTCGIADFLNNYQTSVDKDLRTLEGILYQVENKTSEARELVKAIQISYNPDQPSKPNNIESATKNSKSMMEEIMKYETLISTHESTIRFLQEVYNSNSQKIVNLRDKVVQLEANCQEPCQDTVKIHDVTGRDCQDVANKGAKESGLYFIRPLKAKQFLVYCEIDGSGNGWTVFQKRLDGSLDFKKNWIQYKEGFGHLSPTGTGNTEFWLGNEKIHLISTQSSIPYVLRIQLEDWNGRTSTADYASFKVTGENDKYRLTYAYFIGGDAGDAFDGYDFGDDSSDKFFTSHNGMQFSTWDSDNDKYDGNCAEQVGIGWWMNKCHAGHLNGVYYQGGTYSKTSTPNGYDNGIIWATWKSRWYSMKKTTMKIIPLNRLAIGEGQQHQLGGAKQVGVEHHVEIEYD
notes: fibrinogen Aα chain, bovine; fibrinogen Bβ chain, bovine; fibrinogen γ chain, bovine; About 340 kDa, six polypeptide chains (two Aα, two Bβ, two γ); also called bFg; source: bought: Wako Pure Chemical Industries (from plasma), purified via size-exclusion chromatography (monomer fractions); copies: 2 + 2 + 2
With B2 the “stoichiometry N” value (Amyloid β 1-42 monomer [3]) was at most 6, the “stoichiometry N” value (Amyloid β 1-42 oligomer [4]) was at least 2 and the Kd (Amyloid β 1-42 monomer [1]) was about 1000 nM. The Kd (Amyloid β 1-42 oligomer [2]) was 200 ± 50 nM.

From publication PMC12447488, “Targeting Both Monomer and Oligomer with Fibrinogen Efficiently Suppresses Amyloid Fibril Formation and Cell Toxicity of Amyloid β 1‑42” (ACS Chemical Neuroscience, 2025)
